# Reference: publication PMC6915754, “Protein components of ribonucleoprotein granules from Drosophila germ cells oligomerize and show distinct spatial organization during germline development” (Scientific Reports, 2019)
# T1: GFP-Aub (functional and methylated, from fly ovaries) (Drosophila, UniProt O76922 1-866, methylated (sDMAs), positions not given)
# T1 construct: Aubergine (Aub), Piwi family protein, Drosophila; full-length; also called full-length Aub; source: purified from fly ovaries with anti-GFP beads
# T1 sequence (looked up): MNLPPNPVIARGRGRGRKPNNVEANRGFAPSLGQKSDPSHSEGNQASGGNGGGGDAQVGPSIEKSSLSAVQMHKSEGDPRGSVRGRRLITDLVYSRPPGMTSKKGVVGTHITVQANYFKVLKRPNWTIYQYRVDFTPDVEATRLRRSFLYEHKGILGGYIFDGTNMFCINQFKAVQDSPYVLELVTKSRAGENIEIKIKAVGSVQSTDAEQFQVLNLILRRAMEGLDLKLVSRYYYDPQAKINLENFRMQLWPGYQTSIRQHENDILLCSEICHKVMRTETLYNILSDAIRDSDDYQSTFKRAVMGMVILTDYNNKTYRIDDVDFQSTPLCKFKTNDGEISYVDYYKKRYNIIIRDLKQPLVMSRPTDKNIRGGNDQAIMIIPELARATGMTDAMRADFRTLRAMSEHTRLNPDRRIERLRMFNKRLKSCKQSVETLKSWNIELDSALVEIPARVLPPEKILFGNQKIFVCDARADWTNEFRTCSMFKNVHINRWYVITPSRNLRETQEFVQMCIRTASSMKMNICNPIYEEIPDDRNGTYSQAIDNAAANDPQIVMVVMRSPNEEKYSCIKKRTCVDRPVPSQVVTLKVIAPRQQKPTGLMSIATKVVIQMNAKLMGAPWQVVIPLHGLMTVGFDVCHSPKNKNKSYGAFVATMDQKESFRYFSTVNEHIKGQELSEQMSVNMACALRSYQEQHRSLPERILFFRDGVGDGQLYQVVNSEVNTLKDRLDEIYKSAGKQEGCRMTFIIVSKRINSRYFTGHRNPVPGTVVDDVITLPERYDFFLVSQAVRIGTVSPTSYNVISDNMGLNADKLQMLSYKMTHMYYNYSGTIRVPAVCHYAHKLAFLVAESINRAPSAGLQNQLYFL
# B1: methylated Aubergine (sDMA-Aub) (natural protein, Drosophila, UniProt O76922 1-866, looked up)
# chain: MNLPPNPVIARGRGRGRKPNNVEANRGFAPSLGQKSDPSHSEGNQASGGNGGGGDAQVGPSIEKSSLSAVQMHKSEGDPRGSVRGRRLITDLVYSRPPGMTSKKGVVGTHITVQANYFKVLKRPNWTIYQYRVDFTPDVEATRLRRSFLYEHKGILGGYIFDGTNMFCINQFKAVQDSPYVLELVTKSRAGENIEIKIKAVGSVQSTDAEQFQVLNLILRRAMEGLDLKLVSRYYYDPQAKINLENFRMQLWPGYQTSIRQHENDILLCSEICHKVMRTETLYNILSDAIRDSDDYQSTFKRAVMGMVILTDYNNKTYRIDDVDFQSTPLCKFKTNDGEISYVDYYKKRYNIIIRDLKQPLVMSRPTDKNIRGGNDQAIMIIPELARATGMTDAMRADFRTLRAMSEHTRLNPDRRIERLRMFNKRLKSCKQSVETLKSWNIELDSALVEIPARVLPPEKILFGNQKIFVCDARADWTNEFRTCSMFKNVHINRWYVITPSRNLRETQEFVQMCIRTASSMKMNICNPIYEEIPDDRNGTYSQAIDNAAANDPQIVMVVMRSPNEEKYSCIKKRTCVDRPVPSQVVTLKVIAPRQQKPTGLMSIATKVVIQMNAKLMGAPWQVVIPLHGLMTVGFDVCHSPKNKNKSYGAFVATMDQKESFRYFSTVNEHIKGQELSEQMSVNMACALRSYQEQHRSLPERILFFRDGVGDGQLYQVVNSEVNTLKDRLDEIYKSAGKQEGCRMTFIIVSKRINSRYFTGHRNPVPGTVVDDVITLPERYDFFLVSQAVRIGTVSPTSYNVISDNMGLNADKLQMLSYKMTHMYYNYSGTIRVPAVCHYAHKLAFLVAESINRAPSAGLQNQLYFL
# modifications: symmetrically dimethylated arginines (sDMAs), positions not given
# notes: Aubergine (Aub), Piwi family protein, Drosophila; full-length; monomer ~100 kDa; Oligomers migrate at 500-700 kDa; also called sDMA-containing Aub; source: Sf9 or TriEx Sf9 cells, baculovirus, co-expressed with Dart5(Csul) and Vls; for SEC also Ni-NTA); not shown: 3xFLAG, N-terminal, kept
# B2: unmethylated Aubergine (natural protein, Drosophila, UniProt O76922 1-866, looked up)
# chain: MNLPPNPVIARGRGRGRKPNNVEANRGFAPSLGQKSDPSHSEGNQASGGNGGGGDAQVGPSIEKSSLSAVQMHKSEGDPRGSVRGRRLITDLVYSRPPGMTSKKGVVGTHITVQANYFKVLKRPNWTIYQYRVDFTPDVEATRLRRSFLYEHKGILGGYIFDGTNMFCINQFKAVQDSPYVLELVTKSRAGENIEIKIKAVGSVQSTDAEQFQVLNLILRRAMEGLDLKLVSRYYYDPQAKINLENFRMQLWPGYQTSIRQHENDILLCSEICHKVMRTETLYNILSDAIRDSDDYQSTFKRAVMGMVILTDYNNKTYRIDDVDFQSTPLCKFKTNDGEISYVDYYKKRYNIIIRDLKQPLVMSRPTDKNIRGGNDQAIMIIPELARATGMTDAMRADFRTLRAMSEHTRLNPDRRIERLRMFNKRLKSCKQSVETLKSWNIELDSALVEIPARVLPPEKILFGNQKIFVCDARADWTNEFRTCSMFKNVHINRWYVITPSRNLRETQEFVQMCIRTASSMKMNICNPIYEEIPDDRNGTYSQAIDNAAANDPQIVMVVMRSPNEEKYSCIKKRTCVDRPVPSQVVTLKVIAPRQQKPTGLMSIATKVVIQMNAKLMGAPWQVVIPLHGLMTVGFDVCHSPKNKNKSYGAFVATMDQKESFRYFSTVNEHIKGQELSEQMSVNMACALRSYQEQHRSLPERILFFRDGVGDGQLYQVVNSEVNTLKDRLDEIYKSAGKQEGCRMTFIIVSKRINSRYFTGHRNPVPGTVVDDVITLPERYDFFLVSQAVRIGTVSPTSYNVISDNMGLNADKLQMLSYKMTHMYYNYSGTIRVPAVCHYAHKLAFLVAESINRAPSAGLQNQLYFL
# notes: Aubergine (Aub), Piwi family protein, Drosophila; full-length; without sDMAs; source: Sf9 cells lacking dart5/vls bacmid, baculovirus; not shown: 3xFLAG, N-terminal, kept
# B3: Tud domain 6 (amino acids 1299-1484 of Tudor) (domain or fragment, Drosophila, UniProt P25823 1299-1484, looked up)
# chain: SFICPYPVVLSSFQALVVYTAKPYRVYVQPQAIVPSMQTLLDNMYEHYKAKGDSLKKFDVGQICAVRSSDGNWYRARISGKDSNAACFEVFYIDYGNTEEIKRDDIKALDAKFYEHASGFAVEINLPIGRPSNDTKLKARISEILEEKVVTIKSIEVRRSHLIADVILENNQSVIDLLKAEKLVPG
# notes: Tudor (Tud) protein, Drosophila, full length 2515 amino acids; Tud domain 6, amino acids 1299-1484; pET SUMO vector; source: E. coli BL21 (DE3), partially purified (Ni-NTA); not shown: His, N-terminal, kept
# B4: Tud domain 3 (amino acids 592-772 of Tudor) (domain or fragment, Drosophila, UniProt P25823 592-772, looked up)
# chain: QLENDDAVEIRFIDSPSNFYVQKVANIGKFEQLMDEMFSYYNANQRVPDQLILGAPCIVKCDQEWYRAEILRVDDSVIVRHVDFGYEQNVKRHLIGHIAEKHLEMPRQAIKCCLKGFENSELSEDKITDQFEMLAEESNIRRRTFSVRIFRIEPDGLNVVNLLAKNLNVMKKLYKLSMPFE
# notes: Tudor (Tud) protein, Drosophila, full length 2515 amino acids; Tud domain 3, amino acids 592-772; pET SUMO vector; source: E. coli BL21 (DE3), partially purified (Ni-NTA); not shown: His, N-terminal, kept
# B5: Tud domain 11 (amino acids 2335-2515 of Tudor) (domain or fragment, Drosophila, UniProt P25823 2335-2515, looked up)
# chain: STVTGVQKPLEAELHNCVVVQFDGPMSFYVQMESDVPALEQMTDKLLDAEQDLPAFSDLKEGALCVAQFPEDEVFYRAQIRKVLDDGKCEVHFIDFGNNAVTQQFRQLPEELAKPARYSRHCELDASTISKCDAALLQSFIDTRFSETFQVEILATKGTGTHVVRLFYQSKNISEKLQECQ
# notes: Tudor (Tud) protein, Drosophila, full length 2515 amino acids; Tud domain 11, amino acids 2335-2515; pET SUMO vector; source: E. coli BL21 (DE3), partially purified (Ni-NTA); not shown: His, N-terminal, kept
# B6: Tud domain 4 (amino acids 1002-1192 of Tudor) (domain or fragment, Drosophila, UniProt P25823 1002-1192, looked up)
# chain: SLDKPYALQEMKTPSKEAASLSWWLSPFQFYIVPKSVSAKYDNIMRDMREFYRQKQHQPLQLKVGSTVVVRQRKDNAILRATVTACNHMMRKYRVFCVDTGSLITVTSEDIWQLEQRFADPPCMAHRCSFHSVVTNYDPLYIVDRMETFVPVNAKVDCEFVSKEKSNQGSNTSSTCSYTVNIFVNGASLRD
# notes: Tudor (Tud) protein, Drosophila, full length 2515 amino acids; Tud domain 4, amino acids 1002-1192; pET SUMO vector; source: E. coli BL21 (DE3), partially purified (Ni-NTA); not shown: His, N-terminal, kept
# B7: Tud domain 1 (amino acids 1-217 of Tudor) (domain or fragment, Drosophila, UniProt P25823 1-217, looked up)
# chain: MNGQARIALPSKVDLYITHVDHVGPYLKVYGHVNRDAASLISERIRNLLPTCFAIEPSWSVERQQALLIPGTFCIFKNINGPAPGDVEYRRIRVVSADLEGQSMRAEIDFVDFGYKRTVDSHDLMFPKQPKLLQNIPLHCFQYIVLGICSEWDQTDLAEVRRLVVNQIVKITVEPTQICDQKFASLRWKDFELNEFLVQQKQIGVSVDKQLMMDHCK
# notes: Tudor (Tud) protein, Drosophila, full length 2515 amino acids; Tud domain 1, amino acids 1-217; pET SUMO vector; source: E. coli BL21 (DE3), partially purified (Ni-NTA); not shown: His, N-terminal, kept
# B8: Tud domain 9 (amino acids 1976-2160 of Tudor) (domain or fragment, Drosophila, UniProt P25823 1976-2160, looked up)
# chain: SLAVTTKAIITHVENTSRIYLQFSEKDSLMDIICEKLNGSKLQPKTEKAAVDDMCVVQFADDLEFYRSRILEVLEDDQYKVILIDYGNTTVVDKLYELPQEFTLIKPVAEICSMEPSAIFEKNKALTLTTFDALLDSCKGVVAVEFVNKSASPPVVRLTTKDKRSLKIYEHLQKLVQAELKLIQK
# notes: Tudor (Tud) protein, Drosophila, full length 2515 amino acids; Tud domain 9, amino acids 1976-2160; pET SUMO vector; source: E. coli BL21 (DE3), partially purified (Ni-NTA); not shown: His, N-terminal, kept
# Target: the molecule itself
# Experiment: native gel or EMSA; blue native PAGE (BN-PAGE), NativePAGE 3-12% Bis-Tris gels, of Aub purified by anti-c-Myc immunoaffinity, several concentrations; western blot with anti-Flag antibody
# Details: not given
row,Binder,binding result
1,B1,binds
2,B2,binds

# Target: T1, GFP-Aub (functional and methylated, …)
# Experiment: pull-down; GFP-Aub from fly ovaries held on anti-GFP agarose beads; partially purified His-SUMO Tud domains added; 50 µl reactions, 4 °C, 30 min, binding buffer PBS + 0.05% IGEPAL CA-630; 4 washes; bound domains detected by anti-His-tag western blot
# Details: both partners purified
row,Binder,binding result
1,B3,binds
2,B4,binds
3,B5,binds
4,B6,binds
5,B7,binds
6,B8,binds
